Experimental data as given in US6376459.

Biological target: CD40CR (CD40 counter-receptor), 39 kD membrane protein of activated murine helper T cells (murine) (UniProt P27548)
Experiment: flow cytometry on activated Th, FITC-RG7 detection

Sequence of UniProt P27548 (P27548 whole entry): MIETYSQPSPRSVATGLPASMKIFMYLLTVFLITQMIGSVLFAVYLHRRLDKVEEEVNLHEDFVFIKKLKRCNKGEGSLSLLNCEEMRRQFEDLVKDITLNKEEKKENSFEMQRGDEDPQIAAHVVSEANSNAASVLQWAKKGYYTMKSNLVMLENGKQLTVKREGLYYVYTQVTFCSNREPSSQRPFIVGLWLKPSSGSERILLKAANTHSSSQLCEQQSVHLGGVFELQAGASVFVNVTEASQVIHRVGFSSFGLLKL

percent positive cells: 61%
Substance: MR1, hamster anti-murine gp39 monoclonal antibody
